This note sets out measurements from patent US20090208490A1 (AbbVie / Abbott, published 2009).

The target in experiment [1] is T1, recombinant mouse proNGF (rm-proNGF) (mouse, UniProt P01139 19-241). In words: SPR (BIAcore), antibody immobilized.
The target of experiment [2] is T2, mouse NGF (m-NGF, Alomone) (mouse, UniProt P01139 122-241).
T2 construct: mature; Commercial m-NGF
In words: SPR (BIAcore 2000), antibody amine-coupled on CM5 chip, m-NGF injected. The procedure: For m-NGF binding, the immobilization of the antibody was of 3000 resonance units (RU) in the experiment of panel A and of 6000 RU in the experiment of panel B. The injected concentrations of the m-NGF are indicated on top of each curve. From a complete analysis of the data, the affinity parameters were evaluated, and resulted to be the following.
(§1) Experiments were performed on CM5 chips with amine coupling, using a BIAcore 2000 machine. Coupling was performed with a specific kit purchased at BIAcore and the coupling reaction was carried out according to manufacturer's instructions.
(§2) Anti-NGF antibodies were immobilized on chip, while mouse NGF (m-NGF, Alomone) or recombinant mouse proNGF (rm-proNGF) were injected at decreasing concentrations to obtain binding curves.
On the technique in general: Surface plasmon resonance follows binding to a sensor surface in real time, without labels.

The target in experiment [3] is T1, recombinant mouse proNGF (rm-proNGF). In words: SPR (BIAcore 2000), antibody amine-coupled on CM5 chip (3000 RU), rm-proNGF injected, kinetic analysis. The procedure: The injected concentrations of the rm-proNGF are indicated on top of each curve.
as §1, §2

T1 sequence (P01139 19-241): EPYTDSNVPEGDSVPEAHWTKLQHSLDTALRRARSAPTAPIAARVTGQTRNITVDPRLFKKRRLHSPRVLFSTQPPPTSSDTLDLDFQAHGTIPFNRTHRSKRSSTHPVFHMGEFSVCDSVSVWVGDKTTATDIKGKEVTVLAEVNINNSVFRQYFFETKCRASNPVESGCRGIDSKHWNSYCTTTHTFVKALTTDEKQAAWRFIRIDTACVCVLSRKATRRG
T2 sequence (P01139 122-241 limits assumed): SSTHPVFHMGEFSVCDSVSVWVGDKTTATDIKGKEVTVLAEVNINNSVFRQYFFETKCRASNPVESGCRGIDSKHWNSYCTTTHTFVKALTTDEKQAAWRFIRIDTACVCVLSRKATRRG

B1: Hu-αD11 (humanized variant of the αD11 anti-NGF antibody) (antibody, V domains shown)
VH: EVQLVESGGGLVQPGGSLRLSCAASGFSLTNNNVNWVRQAPGKGLEWVGGVWAGGATDYNSALKSRFTISRDNSKNTAYLQMNSLRAEDTAVYYCARDGGYSSSTLYAMDAWGQGTLVTVSS
VL: DIQMTQSPSSLSASVGDRVTITCRASEDIYNALAWYQQKPGKAPKLLIYNTDTLHTGVPSRFSGSGSGTDYTLTISSLQPEDFATYFCQHYFHYPRTFGQGTKVEIK
notes: also called Hu-alphaD11; Hu-aD11
Regarding B1, in experiment [1], the binding result is on record as “binds”.

B2: αD11 anti-NGF antibody (antibody, V domains shown)
VH: QVQLKESGPGLVQPSQTLSLTCTVSGFSLTNNNVNWVRQATGRGLEWMGGVWAGGATDYNSALKSRLTITRDTSKSQVFLKMHSLQSEDTATYYCARDGGYSSSTLYAMDAWGQGTTVTVSA
VL: DIQMTQSPASLSASLGETVTIECRASEDIYNALAWYQQKPGKSPQLLIYNTDTLHTGVPSRFSGSGSGTQYSLKINSLQSEDVASYFCQHYFHYPRTFGGGTKLELK
notes: Rat monoclonal antibody purified from hybridoma supernatant; the constant regions are not; also called alphaD11; aD11
In general, Kd refers to the equilibrium constant for the complex coming apart. In experiment [2], B2 gave a Kd of 0.0028 nM. In experiment [3], the Ka is 1.2e+09 M⁻¹ and the dissociation constant (Kd) was determined as 1.9 nM.
